From paper PMC2651774

Biological target: GST-CR3 (HAdV-5 E1A residues 139–204 fused to GST) (human adenovirus type 5 (HAdV-5)) (UniProt P03255)
Assay: pull-down

Sequence of Full-length, purified FLAG-tagged CBP (CREB-binding protein), Q92793 1-2442 (natural protein) (Q92793 whole entry): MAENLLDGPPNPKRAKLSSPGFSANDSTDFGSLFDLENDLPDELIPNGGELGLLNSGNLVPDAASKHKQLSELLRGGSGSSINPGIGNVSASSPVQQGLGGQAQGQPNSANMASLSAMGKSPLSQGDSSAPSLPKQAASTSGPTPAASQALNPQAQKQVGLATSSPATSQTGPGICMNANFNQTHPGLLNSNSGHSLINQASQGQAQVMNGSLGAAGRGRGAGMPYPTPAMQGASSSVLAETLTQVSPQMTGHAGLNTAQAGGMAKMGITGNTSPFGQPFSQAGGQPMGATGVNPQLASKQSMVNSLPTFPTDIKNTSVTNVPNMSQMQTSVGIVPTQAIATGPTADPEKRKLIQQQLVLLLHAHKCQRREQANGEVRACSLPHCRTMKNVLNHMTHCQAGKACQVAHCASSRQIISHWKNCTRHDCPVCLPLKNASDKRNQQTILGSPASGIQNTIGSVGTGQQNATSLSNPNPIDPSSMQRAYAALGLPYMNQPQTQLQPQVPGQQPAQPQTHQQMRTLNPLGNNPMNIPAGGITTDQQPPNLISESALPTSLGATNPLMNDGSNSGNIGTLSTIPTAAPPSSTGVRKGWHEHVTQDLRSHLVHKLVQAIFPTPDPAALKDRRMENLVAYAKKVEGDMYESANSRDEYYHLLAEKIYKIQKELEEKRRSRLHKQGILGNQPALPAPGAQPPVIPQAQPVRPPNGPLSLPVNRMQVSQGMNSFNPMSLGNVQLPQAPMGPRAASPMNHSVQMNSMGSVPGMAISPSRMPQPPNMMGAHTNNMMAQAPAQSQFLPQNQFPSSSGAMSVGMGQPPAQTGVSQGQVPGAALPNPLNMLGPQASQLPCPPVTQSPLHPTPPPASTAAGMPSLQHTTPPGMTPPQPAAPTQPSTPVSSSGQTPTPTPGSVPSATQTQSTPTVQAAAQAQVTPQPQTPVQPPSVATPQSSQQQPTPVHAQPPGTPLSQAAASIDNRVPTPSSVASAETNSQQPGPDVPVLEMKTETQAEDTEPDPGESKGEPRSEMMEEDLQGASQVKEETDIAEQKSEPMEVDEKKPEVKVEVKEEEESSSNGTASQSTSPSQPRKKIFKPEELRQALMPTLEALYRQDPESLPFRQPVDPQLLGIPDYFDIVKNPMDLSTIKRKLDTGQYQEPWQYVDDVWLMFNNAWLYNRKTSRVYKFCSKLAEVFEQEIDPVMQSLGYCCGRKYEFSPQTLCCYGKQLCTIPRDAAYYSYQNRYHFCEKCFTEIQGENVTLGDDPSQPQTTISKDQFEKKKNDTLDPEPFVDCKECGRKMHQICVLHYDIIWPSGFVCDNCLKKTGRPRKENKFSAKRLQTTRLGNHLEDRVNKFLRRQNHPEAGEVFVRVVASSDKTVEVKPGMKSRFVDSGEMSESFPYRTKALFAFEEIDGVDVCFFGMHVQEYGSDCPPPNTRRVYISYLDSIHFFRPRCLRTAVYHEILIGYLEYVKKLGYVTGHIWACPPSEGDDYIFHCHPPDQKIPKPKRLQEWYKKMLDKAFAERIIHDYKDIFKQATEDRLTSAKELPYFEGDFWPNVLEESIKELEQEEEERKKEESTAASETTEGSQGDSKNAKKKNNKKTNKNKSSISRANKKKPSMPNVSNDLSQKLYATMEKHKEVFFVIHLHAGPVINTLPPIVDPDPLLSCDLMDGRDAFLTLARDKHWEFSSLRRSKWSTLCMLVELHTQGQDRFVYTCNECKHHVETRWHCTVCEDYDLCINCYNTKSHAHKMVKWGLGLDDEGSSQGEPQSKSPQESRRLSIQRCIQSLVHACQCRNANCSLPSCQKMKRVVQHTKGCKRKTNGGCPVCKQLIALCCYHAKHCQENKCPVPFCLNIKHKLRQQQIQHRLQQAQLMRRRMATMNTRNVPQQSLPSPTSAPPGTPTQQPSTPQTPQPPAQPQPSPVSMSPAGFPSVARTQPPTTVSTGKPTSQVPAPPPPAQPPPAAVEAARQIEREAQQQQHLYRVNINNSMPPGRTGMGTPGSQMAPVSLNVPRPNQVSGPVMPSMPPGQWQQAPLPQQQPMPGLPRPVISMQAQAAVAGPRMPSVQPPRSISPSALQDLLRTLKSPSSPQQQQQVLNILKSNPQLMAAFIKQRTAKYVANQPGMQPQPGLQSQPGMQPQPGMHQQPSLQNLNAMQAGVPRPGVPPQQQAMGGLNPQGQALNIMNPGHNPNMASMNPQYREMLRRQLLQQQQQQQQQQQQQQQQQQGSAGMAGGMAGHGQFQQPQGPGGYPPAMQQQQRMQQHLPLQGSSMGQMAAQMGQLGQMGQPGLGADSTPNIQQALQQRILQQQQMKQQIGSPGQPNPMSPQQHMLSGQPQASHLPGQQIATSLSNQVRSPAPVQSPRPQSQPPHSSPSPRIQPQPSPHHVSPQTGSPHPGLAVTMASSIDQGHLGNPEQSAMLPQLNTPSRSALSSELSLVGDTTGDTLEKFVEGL
Sequence of GST-CR3 (HAdV-5 E1A residues 139–204 fused to GST) (human adenovirus type 5 (HAdV-5)) (P03255 139-204): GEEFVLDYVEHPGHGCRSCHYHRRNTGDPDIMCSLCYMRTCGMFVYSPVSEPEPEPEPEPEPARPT

**Q.** “Full-length, purified FLAG-tagged CBP (CREB-binding protein), Q92793 1-2442 (natural protein)” was tested. Which reduction of the interaction on addition of HeLa total cellular extract did it give?
**A.** Its reduction of the interaction on addition of HeLa total cellular extract is 50%.
